Data reported in article PMC6511868.

Tests used:
[1] = biological target: uL23 as bait of the co-IP of Figure 1C (tag not told) (UniProt P04456); test: co-immunoprecipitation, western blot quantification; settings: parent: 100
[2] = biological target: uS3-GFP (S. cerevisiae) (UniProt P05750); test: co-IP; yeast lysates; GFP-Trap_A beads (GFP-tagged baits) or IgG-Sepharose (TAP-tagged baits), 3 h at 4°C, western blot; wild type and the strains sup45-2, rat8-2, rat7ΔN shifted to 37°C for 1 h; also 0.5 mg/ml cycloheximide for 30 min; also high copy RLI1
Chain of UniProt P05750 (P05750 whole entry): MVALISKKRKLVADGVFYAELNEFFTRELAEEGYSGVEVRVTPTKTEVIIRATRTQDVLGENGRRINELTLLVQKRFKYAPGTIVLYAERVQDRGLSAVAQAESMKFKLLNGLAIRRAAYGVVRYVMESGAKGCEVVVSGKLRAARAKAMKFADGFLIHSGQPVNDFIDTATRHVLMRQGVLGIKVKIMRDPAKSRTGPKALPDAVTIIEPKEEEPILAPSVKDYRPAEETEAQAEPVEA

Chain of UniProt P04456 (P04456 whole entry): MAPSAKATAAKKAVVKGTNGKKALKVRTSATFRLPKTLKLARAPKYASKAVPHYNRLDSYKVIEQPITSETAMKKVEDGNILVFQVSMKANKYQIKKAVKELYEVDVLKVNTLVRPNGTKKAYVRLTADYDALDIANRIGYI

| percent of parent [1] [%] | co-precipitation relative to wild-type eRF1 [2] | co-precipitation relative to wild-type eRF1, with high copy RLI1 [2] [%] | Substance |
| --- | --- | --- | --- |
| 46 |  |  | eukaryotic release factor 1 (eRF1) (from UniProt P12385) sup45-2 |
|  | 0.25 of wild type | > 60 | mutated eRF1 protein sup45-2 (from UniProt P12385 1-437) (natural protein) |
